The series deals with Rad24-RFC clamp loader;9-1-1 clamp (Ddc1-Mec3-Rad17) (Saccharomyces cerevisiae;Saccharomyces …, UniProt P32641;P40348;P38629;P40339;P38251;Q08949;Q02574;P48581 …, |). Description: cryo-EM structure; closed 9-1-1 state; 0.5 mM ATPgS, 5 mM Mg acetate; 4 ATPgS and 1 ADP bound; 3.2 A; 1.8 uM Rad24-RFC, 2.2 uM 9-1-1, 2.7 uM DNA, 0.5 mM ATPgS, 5 mM Mg acetate; 9-1-1 + DNA 10 min at 30 C, then with loader on ice water 30 min (double-tailed) or 3.

B1: double-tailed DNA (3'- and 5'-recessed ends) (dsDNA)
DNA 1: GCAGACACTACGAGTACATA
DNA 2: TTTTTTTTTTTATGTACTCGTAGTGTCTGCTTTTTTTTTT
modifications: 5'-OH
Turning to B1, the binding result is reported as “binds”.

The values are drawn from paper PMC9010301.
